The target of one experiment is T1, PKG (Rattus norvegicus, UniProt A9LNM8).
T1 construct: endogenous in cells; host or cells: primary neonatal rat cardiac fibroblasts transfected with 5'-FLAG sNRF fragments
T1 sequence (A9LNM8 1-671): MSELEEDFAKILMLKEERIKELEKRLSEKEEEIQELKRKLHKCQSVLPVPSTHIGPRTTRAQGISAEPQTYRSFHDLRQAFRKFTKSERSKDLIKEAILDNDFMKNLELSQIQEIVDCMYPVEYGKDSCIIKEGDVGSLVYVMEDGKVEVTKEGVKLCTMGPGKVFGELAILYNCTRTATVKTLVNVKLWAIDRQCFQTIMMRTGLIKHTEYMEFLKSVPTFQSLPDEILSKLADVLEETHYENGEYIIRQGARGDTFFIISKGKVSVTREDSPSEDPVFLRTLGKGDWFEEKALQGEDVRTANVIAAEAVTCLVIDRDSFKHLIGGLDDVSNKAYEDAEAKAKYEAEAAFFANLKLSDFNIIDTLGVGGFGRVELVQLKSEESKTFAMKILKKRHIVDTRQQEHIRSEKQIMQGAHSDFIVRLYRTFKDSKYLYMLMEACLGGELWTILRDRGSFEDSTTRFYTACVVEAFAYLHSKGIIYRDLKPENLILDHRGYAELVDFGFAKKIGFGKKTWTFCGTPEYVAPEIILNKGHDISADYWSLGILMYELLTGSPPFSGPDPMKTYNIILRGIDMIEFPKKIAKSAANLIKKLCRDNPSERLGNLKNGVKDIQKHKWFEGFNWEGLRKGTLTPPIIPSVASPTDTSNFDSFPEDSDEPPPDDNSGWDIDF
The experiment in a line: Co-immunoprecipitation of PKG with FLAG-tagged NPRA fragments in primary CFs. The experiment is classed as binding. Conditions: 5'-FLAG-tagged fragment in transfected CFs, anti-FLAG M2 affinity gel. The method, then:
Neonatal rat ventricular fibroblasts (CFs) were cultured from 1 to 2-day-old Harlan Sprague-Dawley rats as described previously (Simpson, Circulation Res. 56:884-94, 1985). Briefly, ventricles were dissected free from atria and quartered. Following dissociation in ADS buffer containing 1.5 mg/ml trypsin (Gibco #27250-018) and 1% DNase solution (2 mg/ml DNase type II, 150 mM NaCl) with serum neutralization the collected cells were pre-incubated in media at 37° C. for 90 minutes to allow CF attachment to the bottom of culture dishes. CFs were incubated in plating media for 48 hours, divided into 6-well culture plates or dual-well chamberslides, and grown to 50% confluency in DMEM with 10% FBS prior to use.
CFs were transiently transfected with nucleic acid molecules encoding sNRF^(806-1061), sNRF^(806-900), or sNRF^(806-860) using routine methods. Briefly, PCR-generated, 5′-FLAG epitope-tagged sNRFs were subcloned into the BamHI and EcoRI sites of pCDNA3 (Invitrogen) and sequenced to verify construction accuracy. […]
The ability of the NPRA fragments to immunoprecipitate PKG was determined in the primary CF cells transfected with the 5′-FLAG epitope-tagged NPRA fragments as follows. […] Bound antibody was detected with chemiluminescent substrate (Western Lightning ECL, PerkinElmer Life Sciences).

The subject of experiment [1] is cardiac fibroblasts (CFs). In words: Vimentin localisation in CFs by immunofluorescence microscopy. It counts as cell-based, rat. Conditions: fragment expressed. The protocol:
NP's ability to inhibit growth factor-induced CF differentiation into myofibroblasts was determined as follows. CFs were transiently transfected with insertless pcDNA3 vector or pcDNA3 encoding sNRF^(806-900) (see Example 7). The transfected CFs were then treated for 48 hours with 10 ng/ml basic fibroblast growth factor (FGF; Sigma-Aldrich #F0291) in the presence or absence of 100 nM ANP. Alpha-smooth muscle actin (α-SMA) protein expression, the principal marker of CF differentiation, was assessed by Western blotting and immunofluorescence microscopy. Vimentin staining was used as a loading control because it is expressed equally in fibroblasts and transdifferentiated myofibroblasts.
For the immunofluorescence microscopy, slide wells were treated as described in Example 7 and incubated with anti-α-SMA and anti-vimentin antibody as well as phalloidin to stain for actin. Briefly, cells were rinsed twice with phosphate-buffered saline (PBS) and fixed with 3.7% formaldehyde in PBS for 10 minutes. After fixation, cells were rinsed with PBS and permeabilized with 0.3% Triton X-100 in PBS for 10 minutes and blocked for 1 hour in 1% horse serum, 0.2% bovine serum albumin in PBS. Cells were then incubated with primary α-SMA antibody (ABCAM ab7817) and primary vimentin antibody (ABCAM ab7783) diluted in blocking solution for 1 hour and washed three times with blocking solution for 5 minutes. […]

Consider “sNRF^(806-900): intracellular NPRA fragment, residues 806-900, excludes the cyclase-containing domain; shortest fragment observed to associate with PKG”, for which the “co-immunoprecipitation of PKG” value in the experiment with PKG is listed as “co-immunoprecipitated PKG”. Further, the “ANP-associated nuclear to cytosolic translocation of vimentin” value in experiment [1] is listed as “inhibited”.
